The experiment addresses MERS-CoV papain-like cysteine protease (PLpro), His-tagged (MERS-CoV). Kind of experiment: activity-based probe labelling.

The text below walks through data of paper PMC7112362.

The substance “K48-linked diUb "in-between" activity-based probe (from UniProt P0CG47 1-75; P0CG47 1-76)” displayed a percent of the protease labeled after 15 min of 50%.
In the case of “K48-linked diUb "proximal" activity-based probe (from UniProt P0CG47 1-75; P0CG47 1-75)” it was 50%.
